# Data from the DeepSol protein solubility set.
# Test: soluble on expression in E. coli; label from the status in PepcDB or PDB records
row,Sequence,soluble on expression in E. coli
1,MSLNKYEPLFKSLTLPNGVEVRNRFVLAPLTHTSSNDDGTISDIELPYIEKRSKDVGIAINAASNVNDVGKAFPGQPSVAHDSDIEGLKELAQVMKKNGAKAIVQIHHGGAQALPELTPDGDVVAPSAISLKSFGQQKEHDAREMTAEEIEQTIRDFGEATRRAIEAGFDGVEIHGANHYLIHQFVSPYYNRRNDVWADNYKFPVAVIDEVVKAKKAHAYDDFIIGYRLSPEEAESPGISMEITEELIHQIANKPLDYIHVSLMDVNSVTREGKYKGENRLELIHQWINGRMPLIGIGSVFTAEDALNAVENIGVEFVALGCEILLDYDFVAKIKEGREDEIINAFDPNREDQHYLTPNLWEQFNQGFYPLPRKDKEGHHHHHH,soluble
2,MGSDKIHHHHHHMKIHFVGIGGIGMSAVALHEFSNGNDVYGSNIEETERTAYLRKLGIPIFVPHSADNWYDPDLVIKTPAVRDDNPEIVRARMERVPIENRLHYFRDTLKREKKEEFAVTGTDGKTTTTAMVAHVLKHLRKSPTVFLGGIMDSLEHGNYEKGNGPVVYELDESEEFFSEFSPNYLIITNARGDHLENYGNSLTRYRSAFEKISRNTDLVVTFAEDELTSHLGDVTFGVKKGTYTLEMRSASRAEQKAMVEKNGKRYLELKLKVPGFHNVLNALAVIALFDSLGYDLAPVLEALEEFRGVHRRFSIAFHDPETNIYVIDDYAHTPDEIRNLLQTAKEVFENEKIVVIFQPHRYSRLEREDGNFAKALQLADEVVVTEVYDAFEEKKNGISGKMIWDSLKSLGKEAYFVEKLPELEKVISVSENTVFLFVGAGDIIYSSRRFVERYQSSKSSPSRVLGSNK,soluble
3,DKVTQSSPDQTVASGSEVVLLCTYDTVYSNPDLFWYRIRPDYSFQFVFYGDDSRSEGADFTQGRFSVKHILTQKAFHLVISPVRTEDSATYYCAFTLPPPTDKLIFGKGTRVTVEP,soluble
4,MFVAEHEVEIRYAETDQMGVVYHSNYLVWLELGRTKLIQDLGFSYVEMEKEGIISPVLDLQISYRKAMRYGEKASVKTWVDTVSPLRVVYGYEIYNGDGELCITASTTNICAKKEGFRPVSFKKLYPEWYAKYEEIKKK,not soluble
5,MSLSINSREVLAEKVKNAVNNQPVTDMHTHLFSPNFGEILLWDIDELLTYHYLVAEVMRWTDVSIEAFWAMSKREQADLIWEELFIKRSPVSEACRGVLTCLQGLGLDPATRDLQVYREYFAKKTSEEQVDTVLQLANVSDVVMTNDPFDDNERISWLEGKQPDSRFHAALRLDPLLNEYEQTKHRLRDWGYKVNDEWNEGSIQEVKRFLTDWIERMDPVYMAVSLPPTFSFPEESNRGRIIRDCLLPVAEKHNIPFAMMIGVKKRVHPALGDAGDFVGKASMDGVEHLLREYPNNKFLVTMLSRENQHELVVLARKFSNLMIFGCWWFMNNPEIINEMTRMRMEMLGTSFIPQHSDARVLEQLIYKWHHSKSIIAEVLIDKYDDILQAGWEVTEEEIKRDVADLFSRNFWRFVGRNDHVTSVKVEQQTEGHHHHHH,soluble
6,MLRGIVVVDFSHYLPGPFASWRLAQLGAEVIKIEPPSGDRLRPFAEGRLFAAYNAGKKSIGLDLKTDAGREQARRLAARADVVIESFRPGVMARLGLGYDDMCRMNEQIIYCSISGFGQQSGRSLLGSHDLNYMALSGLLAQLADERGRPVHPKITLADFIGGMAAAERILAALFARERTGKGAHLDVSLVDGLAAMMAGHFAIEHGGGPKTGLSELSGEVVCYQLYETKDGRYMSLAALEPHFWRRFCEAVGHPEWTEAQWAPARSGEAVYDELAALFREKTLDEWSAFAEAVDVCLAPVLETGEAKALFADSRLRHLVRLQPGGVWTAAHGPDGQWGGGEPPKVNEHAHLVKGEE,not soluble
7,MSESQLRKGAVELIVLGLLSSRPSYGGQLVERFREEAGLEISTGTLYPLLARLRKSGLVVTAWEESPVGPPRKIYKLAKPGKNRLLQMRREWEALDCAVKRTTQKGIR,not soluble
8,MGSDKIHHHHHHMSRKSNAFSGSAAGLQHPDGRNDSGQKQQMSSPAALLQSDTLGSRLTSRGDLTSFFMELTAEIGADSYMLVAIVHDQDRNDARIVSSNWIFDAIELIGKRLIASLAQGALTVAPGIRPRPLVAARAPDADGLVSGEEARLLDVLGHAEIYSLRLNVGRQRLFALFSAATSGQIDQPALMKAQLKCCYALSHIPQLIAAAAMQDPLSDRERECLFWVSEGKTTDEVAVILGVSSNTVNSYITHAIQKFAASNRAMAIATAIRSGII,not soluble
9,VIIPDINLLLYAVITGFPQHRRAHAWWQDTVNGHTRIGLTYPALFGFLRIATSARVLAAPLPTADAIAYVREWLSQPNVDLLTAGPRHLDIALGLLDKLGTASHLTTDVQLAAYGIEYDAEIHSSDTDFARFADLKWTDPLRE,not soluble
10,GCPRILIRCKQDSDCLAGCVCGPNGFCGSPA,soluble
11,GSPEFKTIDASVSKKAADSTSQCGKATGSDSSGVIDLTMDDEESGASQD,soluble
12,MFERVREDIQSVFHRDPAARNALEVLTCYPGLHAVWLHRLAHGLWTSGWKWLARLVSNFGRWMTGIEIHPGARIGRRFFIDHGMGIVIGETAEIGDDVTLYQGVTLGGTTWNKGKRHPTLGNNVVVGAGAKVLGPFTVGEGAKVGSNAVVTKEVPPGATVVGIPGRIIMREDSEQQAKRQAMAEKLGFDAYGVSQDMPDPVARAIGQLLDHLQAVDGRLEGMCQALTALGSDYCAKDLPVLREEDFAGVKDEDGNPAALEHHHHHH,soluble
13,MEWKTVVKPHTERINVKRSEFYATIFPVKDEKDFREKLKEVSKRDATHNCWAYRIFSPNGILEHSSDDGEPSGTAGRPILGALKKYDLMNTAIVVTRYFGGVKLGVRGLIEAYSSAAEMAVKGAELRKLRLMKEFEVEVDYQELNNVFRVVEMMGLELVEMDYTERGAKILLRGLEVPENLVIKTIRDVLI,soluble
14,MAHHHHHHMGQSKTKLQVVMCGLDNSGKTTIINQVKPAQSSSKHITATVGYNVETFEKGRVAFTVFDMGGAKKFRGLWETYYDNIDAVIFVVDSSDHLRLCVVKSEIQAMLKHEDIRRELPGGGRVPFLFFANKMDAAGAKTAAELVEILDLTTLMGDHPFVIFASNALKGTGVHEGFSWLQETASRQSGKAGTKRG,soluble
15,MGSDKIHHHHHHMEKLRVIEMIKNNPNIIATIDNPTDEMKLLAIKENGLVLEYINNPTREMQELAIDNNIRAIKFIDNPTEDMMIKAVNEGWSILDYIKNPTDKVIEMAINQAGWAIKYAKNPSEELQLLAVRKNYDSIKFIKQPYESVQEEAVRISYDALRYIDSPSYNAELVAIKNNEAAISFITDLDKNKMLEFLKVNILVIKYILKKVSKDELESVLKEVLSKEDVEEKYIRDFLNCSVIDRNSESIPIDKIMFIYKYGSKTAKKIAVDEKLKIM,not soluble
16,MTCARCGYVREDLTLFDRVFVCPKCGWIVDRDYNASLNILRRSGSERPSVWSSAFYRWQGGAMKQEALSVRGGLEHHHHHH,not soluble
17,MSLEEDIQKQIIAAKEEAHDETIWGKPANDIITGIGNNSGVRPQRAIWEMVQNARDVSLNGKADIVFERQHDCFIFQHNGISFTNNTLEALILQTSSKVRNDSVQVGQYGTGFLTTHKLGLKFTLSSSVQLLENEQLFHHFSNFLIDRSSTDKKQMRDSLKKQIKITEEWARNPTIVSGPSSLTTFRYIQEHEVEKMNTKEAFKASSALAPYVIALNPCVNSISFVDNVEDCKELYIRKSTEIINTCDFYNVVKVTIDKCETESCDFTVLMLQSKETVEESGEPKVIVILPIKELESKSVAFALSKDVPNLFIYLPLLGTEQWGLNFIFHSPLFTCDKDSRDSLRFVGNGQNNDVDAERNKGIIQLADVIVSHYITENLSNIQDCMYLAKVAFNLHNSDEALANYYKSLQSSWVKKYESFPFVITKNGNIITRQAKVFDKELFDACLENKDLLTAVYNVTVQIYGTDYLPLETNMLFWSETLLQWYEAESFNPHLIHLSDIVEYIDKNNITTIGEENLWCIDNYIANSKQIGLFTKYKLLPTKNGELRVREDLLNPIIHDESLLKILDSLLPNDVASFIHTRFVLFEDVKIEEYDHNKVKESMRLLVSELSDLQKGHEIYRTNILAGLDVDSNKYEQNKLSDNHINALMGFYAYIVNIGGEAFQYKMIHLLADFYNIDLKSGEAYIKEIYDWRTVAPLLIKDALFRFTLMDSEGHHHHHH,not soluble
18,MSERMWGFGLTEEEASRSIREKMSINDSPTHGHDIHVTRDLVKHHLSKSDMLTDPSQEVLEERTRIQFIRWSHTRIFQVPSEVMDDVMQERIDQVRRSVSHLMCDSYNDPSFRTSCSEC,not soluble
